Experimental data as given in patent US20220242946A1 (Johns Hopkins, published 2022).
Read-outs that look alike come from different tables or passages of the source.

Columns and labels:
[1] = target: human IL-2 (residues 1-133) displayed on the surface of yeast (human, UniProt P60568 21-153); experiment: titration of soluble antibody on yeast-displayed hIL-2, flow cytometry; apparent bivalent affinity
Description: After a final wash, cells were analyzed for antibody binding using a CytoFLEX flow cytometer (Beckman Coulter). Background-subtracted and normalized binding curves were fitted to a first-order binding model and equilibrium dissociation constant (KD) values were determined using GraphPad Prism.
After a 3-day incubation, secreted protein was captured from the supernatant with protein G resin, eluted with 0.1 M glycine pH 2.0, and analyzed via SDS-PAGE. […] Immunocytokine expression was scaled up in HEK 293F cells and the secreted protein was purified via protein G affinity chromatography followed by size-exclusion chromatography.

[2] = target: T1, biotinylated human IL-2 immobilized on streptavidin-coated tips (human, UniProt P60568 21-153, biotinylated (site not stated)); experiment: bio-layer interferometry equilibrium titration, biotinylated hIL-2 on streptavidin tips
T1 construct: The construct used for biotinylated hIL-2 is not described; probably as the soluble hIL-2 (residues 1-133) with tags; also called biotinylated hIL-2; immobilized hIL-2; not shown: tags of the biotinylated hIL-2 are not described (the biotin acceptor peptide is told only for hIL-2Ra and hIL-2Rb)
T1 sequence (P60568 21-153): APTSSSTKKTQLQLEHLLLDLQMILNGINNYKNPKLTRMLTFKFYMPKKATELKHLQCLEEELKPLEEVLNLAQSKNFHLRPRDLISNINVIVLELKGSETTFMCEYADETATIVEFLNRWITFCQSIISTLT
Description: (§1) Less than 5 signal units (nm) of receptor was immobilized to minimize mass transfer effects. […] Surface regeneration for all interactions was conducted using a 15 second exposure to 0.1 M glycine pH 3.0. Experiments were carried out in PB SA (phosphate-buffered saline, pH 7.3 plus 0.1% bovine serum albumin (BSA, Thermo Fisher Scientific)) at 25° C. Data was visualized and processed using the Octet® Data Analysis software version 7.1 (Molecular Devices). Equilibrium titration curve fitting and KD value determination was implemented using GraphPad Prism, assuming all binding interactions to be first order.

[3] = target: T1, biotinylated human IL-2 immobilized on …; experiment: as above; remark: listed apart in the source
Description: as §1

Sequence of human IL-2 (residues 1-133) displayed on the surface of yeast (P60568 21-153 limits assumed): as the sequence (P60568 21-153) above

B1: recombinant F5111 antibody (human IgG1 lambda) (antibody, V domains shown)
VH: QLQLQESGPGLVKPSQTLSLTCTVSGGSISSGGYYWSWIRQHPGKGLEWIGYIYYSGSTYYNPSLKSRVTISVDTSKNQFSLKLSSVTAADTAVYYCARTPTVTGDWFDPWGRGTLVTVSS
VL: SNFMLTQPHSVSESPGKTVTISCTRSSGSIASNYVQWYQQRPGSSPTTVIYEDNQRPSGVPDRFSGSIDSSSNSASLTISGLKTEDEADYYCQSYDSSNVVFGGGTKLTVLG
notes: Expressed in HEK 293F cells; also called F5111 Ab; monoclonal antibody F5111
Kd [1]: 0.42 nM
EC50 (read off the curve) [2]: ~3 nM
EC50 (read off the curve) [3]: ~0.6 nM
